Laboratory results: the supplement of paper PMC12458215
± gives the uncertainty stated by the source.

Test system: HEK293T
Experiment: plasma membrane surface immunostaining intensity (anti-HA, deep receptor scanning) (arbitrary fluorescence units); higher = higher plasma membrane expression

## MDLKTVLSLPRYPGEFLHPVVYACTAVMLLCLLASFVTYIVHQSAIRISRKGRHTLLNFCFHAALTFTVFAGGINRTKYPILCQAVGIVLHYSTLSTMLWIGVTARNIYKQVTKKAPLCLDTDQPPYPRQPLLRFYLVSGGVPFIICGVTAATNIRNYGTEDEDTAYCWMAWEPSLGAFYGPAAIITLVTCVYFLGTYVQLRRHPGRRYELRTQPEEQRRLATPEGGRGIRPGTPPAHDAPGASVLQNEHSFQAQLRAAAFTLFLFTATWAFGALAVSQGHFLDMVFSCLYGAFCVTLGLFVLIHHCAKREDVWQCWWACCPPRKDAHPALDANGAALGRAACLHSPGLGQPRGFAHPPGPCKMTNLQAAQGHASCLSPATPCCAKMHCEPLTADEAHVHLQEEGAFGHDPHLHGCLQGRTKPPYFSRHPAEEPEYAYHIPSSLDGSPRSSRTDSPPSSLDGPAGTHTLACCTQGDPFPMVTQPEGSDGSPALYSCPTQPGREAALGPGHLEMLRRTQSLPFGGPSQNGLPKGKLLEGLPFGTDGTGNIRTGPWKNETTV [ADGRA1]
GPCR class: B
  plasma membrane surface immunostaining intensity: 2640 ± 630

## MGGRVFLAFCVWLTLPGAETQDSRGCARWCPQNSSCVNATACRCNPGFSSFSEIITTPTETCDDINECATPSKVSCGKFSDCWNTEGSYDCVCSPGYEPVSGAKTFKNESENTCQDVDECQQNPRLCKSYGTCVNTLGSYTCQCLPGFKFIPEDPKVCTDVNECTSGQNPCHSSTHCLNNVGSYQCRCRPGWQPIPGSPNGPNNTVCEDVDECSSGQHQCDSSTVCFNTVGSYSCRCRPGWKPRHGIPNNQKDTVCEDMTFSTWTPPPGVHSQTLSRFFDKVQDLGRDSKTSSAEVTIQNVIKLVDELMEAPGDVEALAPPVRHLIATQLLSNLEDIMRILAKSLPKGPFTYISPSNTELTLMIQERGDKNVTMGQSSARMKLNWAVAAGAEDPGPAVAGILSIQNMTTLLANASLNLHSKKQAELEEIYESSIRGVQLRRLSAVNSIFLSHNNTKELNSPILFAFSHLESSDGEAGRDPPAKDVMPGPRQELLCAFWKSDSDRGGHWATEGCQVLGSKNGSTTCQCSHLSSFAILMAHYDVEDWKLTLITRVGLALSLFCLLLCILTFLLVRPIQGSRTTIHLHLCICLFVGSTIFLAGIENEGGQVGLRCRLVAGLLHYCFLAAFCWMSLEGLELYFLVVRVFQGQGLSTRWLCLIGYGVPLLIVGVSAAIYSKGYGRPRYCWLDFEQGFLWSFLGPVTFIILCNAVIFVTTVWKLTQKFSEINPDMKKLKKARALTITAIAQLFLLGCTWVFGLFIFDDRSLVLTYVFTILNCLQGAFLYLLHCLLNKKVREEYRKWACLVAGGSKYSEFTSTTSGTGHNQTRALRASESGI [ADGRE5]
GPCR class: B
  plasma membrane surface immunostaining intensity: 6420 ± 110

## MTTSLDTVETFGTTSYYDDVGLLCEKADTRALMAQFVPPLYSLVFTVGLLGNVVVVMILIKYRRLRIMTNIYLLNLAISDLLFLVTLPFWIHYVRGHNWVFGHGMCKLLSGFYHTGLYSEIFFIILLTIDRYLAIVHAVFALRARTVTFGVITSIVTWGLAVLAALPEFIFYETEELFEETLCSALYPEDTVYSWRHFHTLRMTIFCLVLPLLVMAICYTGIIKTLLRCPSKKKYKAIRLIFVIMAVFFIFWTPYNVAILLSSYQSILFGNDCERSKHLDLVMLVTEVIAYSHCCMNPVIYAFVGERFRKYLRHFFHRHLLMHLGRYIPFLPSEKLERTSSVSPSTAEPELSIVF [CCR3]
GPCR class: A
  plasma membrane surface immunostaining intensity: 391 ± 99

## MEIVSTGNETITEFVLLGFYDIPELHFLFFIVFTAVYVFIIIGNMLIIVAVVSSQRLHKPMYIFLANLSFLDILYTSAVMPKMLEGFLQEATISVAGCLLQFFIFGSLATAECLLLAVMAYDRYLAICYPLHYPLLMGPRRYMGLVVTTWLSGFVVDGLVVALVAQLRFCGPNHIDQFYCDFMLFVGLACSDPRVAQVTTLILSVFCLTIPFGLILTSYARIVVAVLRVPAGASRRRAFSTCSSHLAVVTTFYGTLMIFYVAPSAVHSQLLSKVFSLLYTVVTPLFNPVIYTMRNKEVHQALRKILCIKQTETLD [OR11A1]
GPCR class: A (Olfactory)
  plasma membrane surface immunostaining intensity: 398 ± 120

## MQAALTAFFVLLFSLLSLLGIAANGFIVLVLGREWLRYGRLLPLDMILISLGASRFCLQLVGTVHNFYYSAQKVEYSGGLGRQFFHLHWHFLNSATFWFCSWLSVLFCVKIANITHSTFLWLKWRFPGWVPWLLLGSVLISFIITLLFFWVNYPVYQEFLIRKFSGNMTYKWNTRIETYYFPSLKLVIWSIPFSVFLVSIMLLINSLRRHTQRMQHNGHSLQDPSTQAHTRALKSLISFLILYALSFLSLIIDAAKFISMQNDFYWPWQIAVYLCISVHPFILIFSNLKLRSVFSQLLLLARGFWVA [TAS2R41]
GPCR class: Taste
  plasma membrane surface immunostaining intensity: 129 ± 20
